According to US20230348867:

Key:
Assay in all cases: cell_activity
[1] = tested on: SB100X (Variant 27) K14R,K33A,R115H,R214D,K215A,E216V,N217Q,M243H,T314N (synthetic); conditions: human CD34+ HSC, GFP+ CFU-E
[2] = tested on: SB Variant 23 K14R,K30R,R143L,A205K,H207V,K208R,D210E,R214D,K215A,E216V,N217Q,M243H,G317E (synthetic); conditions: HeLa transposition
[3] = tested on: SB Variant 15 K14R,K30R,R147E,A205K,H207V,K208R,D210E,R214D,K215A,E216V,N217Q,M243H (synthetic); conditions: HeLa transposition
[4] = tested on: SB Variant 18 K14R,K30R,A205K,H207V,K208R,D210E,R214D,K215A,E216V,N217Q,M243H,G317E (synthetic); conditions: HeLa transposition
[5] = tested on: SB M3a (Variant 30) K13A,K33A,T83A,R214D,K215A,E216V,N217Q (synthetic); conditions: HeLa transposition
[6] = tested on: SB Variant 12 K14R,T83A,M243Q,T314N (synthetic); conditions: HeLa transposition
[7] = tested on: SB Variant 5 K13A,K33A,R214D,K215A,E216V,N217Q (synthetic); conditions: HeLa transposition
[8] = tested on: SB Variant 17 K14R,K30R,A205K,H207V,K208R,D210E,R214D,K215A,E216V,N217Q,M243H,T314N (synthetic); conditions: HeLa transposition
[9] = tested on: SB Variant 14 K14R,K30R,R143L,A205K,H207V,K208R,D210E,R214D,K215A,E216V,N217Q,M243H (synthetic); conditions: HeLa transposition
[10] = tested on: SB Variant 3 (6A5) K14R,K30R,A205K,H207V,K208R,D210E,R214D,K215A,E216V,N217Q,M243H (synthetic); conditions: HeLa transposition
[11] = tested on: SB Variant 16 K14R,K30R,A205K,H207V,K208R,D210E,R214D,K215A,E216V,N217Q,M243H,E267D (synthetic); conditions: HeLa transposition
[12] = tested on: SB10 Sleeping Beauty transposase (synthetic (reconstructed from fish)); conditions: HeLa transposition, G418 colonies, reference
[13] = tested on: SB Variant 21 K14R,K30R,R143L,A205K,H207V,K208R,D210E,R214D,K215A,E216V,N217Q,M243H,E267D (synthetic); conditions: HeLa transposition
[14] = tested on: SB Variant 20 K14R,K30R,R147E,A205K,H207V,K208R,D210E,R214D,K215A,E216V,N217Q,M243H,T314N (synthetic); conditions: HeLa transposition
[15] = tested on: SB Variant 1 (2G6/6G2) K14R,R214D,K215A,E216V,N217Q (synthetic); conditions: HeLa transposition
[16] = tested on: SB Variant 6 K33A,T83A,R214D,K215A,E216V,N217Q,G317E (synthetic); conditions: HeLa transposition
[17] = tested on: SB Variant 8 K14R,T83A,I100L,M243Q (synthetic); conditions: HeLa transposition
[18] = tested on: SB Variant 2 (3D5) K33A,R115H,R214D,K215A,E216V,N217Q,M243H (synthetic); conditions: HeLa transposition
[19] = tested on: SB Variant 4 K13D,K33A,T83A,H207V,K208R,D210E,M243Q (synthetic); conditions: HeLa transposition
[20] = tested on: SB Variant 7 (12B1) K14R,T83A,M243Q (synthetic); conditions: HeLa transposition

Substance	binding signal [1] [fold vs SB10]	binding signal [2] [fold vs SB10]	binding signal [3] [fold vs SB10]	binding signal [4] [fold vs SB10]	binding signal [5] [fold vs SB10]	binding signal [6] [fold vs SB10]	binding signal [7] [fold vs SB10]	binding signal [8] [fold vs SB10]	binding signal [9] [fold vs SB10]	binding signal [10] [fold vs SB10]	binding signal [11] [fold vs SB10]	binding signal [12] [fold vs SB10]	binding signal [13] [fold vs SB10]	binding signal [14] [fold vs SB10]	binding signal [15] [fold vs SB10]	binding signal [16] [fold vs SB10]	binding signal [17] [fold vs SB10]	binding signal [18] [fold vs SB10]	binding signal [19] [fold vs SB10]	binding signal [20] [fold vs SB10]
pT2-HB-CAG-GFP SB transposon	100	–	–	–	–	–	–	–	–	–	–	–	–	–	–	–	–	–	–	–
pTNeo (SB inverted repeats flanking NeoR)	–	35	30	25	10	10	20	25	40	30	30	1	50	40	20	20	5	30	20	15
